Measurements as given in the supplement of paper PMC9112550, “Optimization of the antimicrobial peptide Bac7 by deep mutational scanning” (BMC Biology, 2022).

test system: Escherichia coli TOP10; assay: shrunken log2 fold change of peptide-encoding DNA abundance (4.5 h post-induction vs induction); higher = less antimicrobial activity (less host growth inhibition); conditions: time post-induction: 4.5 h; library: site-saturation at positions 5, 18, 19, 20
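Note: peptides expressed intracellularly from a pBAD plasmid library in pooled LB shake-flask culture, induced with 0.3% L-arabinose, DNA abundance read by NGS, three biological replicates, DESeq2 with apeglm shrinkage.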

Point of comparison: RRIRPRPPRLPRPRPRPHGVPRP, “shrunken log2 fold change” value -0.104. Against it:
- RRIRFRPPRLPRPRPRPARMPRP — higher, 0.296
- RRIRTRPPRLPRPRPRPGLNPRP — within 0.2 log units, -0.213
- RRIRIRPPRLPRPRPRPGMCPRP — within 0.2 log units, -0.238
- RRIRIRPPRLPRPRPRPYQHPRP — within 0.2 log units, -0.136
- RRIRSRPPRLPRPRPRPGCRPRP — higher, 0.293
- RRIRARPPRLPRPRPRPGLFPRP — higher, 0.601
- RRIRGRPPRLPRPRPRPKDSPRP — higher, 0.244
- RRIRPRPPRLPRPRPRPENSPRP — within 0.2 log units, -0.0155
- RRIRVRPPRLPRPRPRPYDPPRP — lower, -0.468
- RRIRHRPPRLPRPRPRPWDRPRP — within 0.2 log units, -0.0232
- RRIRNRPPRLPRPRPRPPANPRP — higher, 0.262
- RRIRDRPPRLPRPRPRPYPVPRP — within 0.2 log units, 0.00705
- RRIRHRPPRLPRPRPRPKMGPRP — within 0.2 log units, -0.00141
- RRIRCRPPRLPRPRPRPRMSPRP — within 0.2 log units, 0.041
- RRIRRRPPRLPRPRPRPHCFPRP — higher, 0.118
- RRIRHRPPRLPRPRPRPGTPPRP — higher, 0.104
- RRIRRRPPRLPRPRPRPCCTPRP — within 0.2 log units, -0.0151
- RRIRLRPPRLPRPRPRPHQFPRP — within 0.2 log units, 0.0562
- RRIRCRPPRLPRPRPRPYQLPRP — within 0.2 log units, -0.119
- RRIRNRPPRLPRPRPRPSLWPRP — higher, 0.159
- RRIRPRPPRLPRPRPRPDTDPRP — within 0.2 log units, -0.158
- RRIRFRPPRLPRPRPRPQTFPRP — within 0.2 log units, -0.127
- RRIRIRPPRLPRPRPRPDCYPRP — within 0.2 log units, -0.226
- RRIRLRPPRLPRPRPRPVPMPRP — within 0.2 log units, -0.0969
- RRIRYRPPRLPRPRPRPKPQPRP — within 0.2 log units, -0.115
- RRIRLRPPRLPRPRPRPLHMPRP — within 0.2 log units, -0.112
- RRIRMRPPRLPRPRPRPMSVPRP — within 0.2 log units, -0.00306
- RRIRYRPPRLPRPRPRPQFLPRP — within 0.2 log units, -0.132
- RRIRWRPPRLPRPRPRPGRRPRP — higher, 0.106
- RRIRVRPPRLPRPRPRPYTVPRP — within 0.2 log units, -0.0784
- RRIRNRPPRLPRPRPRPECKPRP — within 0.2 log units, 0.0615
- RRIRDRPPRLPRPRPRPATHPRP — higher, 0.335
- RRIRDRPPRLPRPRPRPSSWPRP — within 0.2 log units, -0.0298
- RRIRDRPPRLPRPRPRPWPEPRP — within 0.2 log units, -0.0683
- RRIRQRPPRLPRPRPRPVIYPRP — within 0.2 log units, -0.0661
- RRIRDRPPRLPRPRPRPERGPRP — higher, 0.689
- RRIRMRPPRLPRPRPRPSFLPRP — within 0.2 log units, -0.121
- RRIRGRPPRLPRPRPRPLPAPRP — higher, 1.33
- RRIRRRPPRLPRPRPRPTGLPRP — within 0.2 log units, 0.0398
- RRIRMRPPRLPRPRPRPNRHPRP — within 0.2 log units, 0.0213
- RRIRPRPPRLPRPRPRPIWFPRP — within 0.2 log units, -0.0151
- RRIRNRPPRLPRPRPRPTGMPRP — higher, 0.236
- RRIRMRPPRLPRPRPRPALYPRP — higher, 0.765
- RRIRTRPPRLPRPRPRPRHNPRP — within 0.2 log units, -0.293
- RRIRNRPPRLPRPRPRPWVQPRP — within 0.2 log units, 0.00853
- RRIRARPPRLPRPRPRPACPPRP — higher, 0.255
- RRIRNRPPRLPRPRPRPPPYPRP — higher, 0.534
- RRIRCRPPRLPRPRPRPHEKPRP — within 0.2 log units, -0.277
- RRIRDRPPRLPRPRPRPMFVPRP — within 0.2 log units, -0.0355
- RRIRERPPRLPRPRPRPVHPPRP — within 0.2 log units, -0.00739
- RRIRCRPPRLPRPRPRPAETPRP — within 0.2 log units, -0.035
- RRIRERPPRLPRPRPRPPCWPRP — within 0.2 log units, 0.0636
- RRIRKRPPRLPRPRPRPWKLPRP — within 0.2 log units, -0.14
- RRIRCRPPRLPRPRPRPIDFPRP — lower, -0.458
- RRIRTRPPRLPRPRPRPPRLPRP — higher, 0.343
- RRIRCRPPRLPRPRPRPPGPPRP — higher, 0.337
- RRIRHRPPRLPRPRPRPMHRPRP — within 0.2 log units, 0.00128
- RRIRCRPPRLPRPRPRPCQIPRP — within 0.2 log units, 0.0258
- RRIRYRPPRLPRPRPRPMLVPRP — within 0.2 log units, -0.176
- RRIRMRPPRLPRPRPRPCMSPRP — within 0.2 log units, -0.00161
- RRIRARPPRLPRPRPRPWDMPRP — higher, 0.187
- RRIRKRPPRLPRPRPRPHWDPRP — within 0.2 log units, 0.0835
- RRIRLRPPRLPRPRPRPENNPRP — lower, -0.406
- RRIRMRPPRLPRPRPRPLWVPRP — within 0.2 log units, 0.0224
- RRIRCRPPRLPRPRPRPDCMPRP — within 0.2 log units, 0.0384
- RRIRNRPPRLPRPRPRPRLCPRP — higher, 0.121
- RRIRIRPPRLPRPRPRPSDKPRP — lower, -0.79
- RRIRGRPPRLPRPRPRPCNLPRP — within 0.2 log units, -0.0958
- RRIRERPPRLPRPRPRPWAMPRP — within 0.2 log units, -0.129
- RRIRIRPPRLPRPRPRPSHFPRP — lower, -0.641
- RRIRNRPPRLPRPRPRPASPPRP — higher, 0.154
- RRIRARPPRLPRPRPRPHPWPRP — within 0.2 log units, -0.00896
- RRIRWRPPRLPRPRPRPCWKPRP — within 0.2 log units, -0.00256
- RRIRERPPRLPRPRPRPSRQPRP — within 0.2 log units, -0.214
- RRIRLRPPRLPRPRPRPSGVPRP — within 0.2 log units, -0.0863
- RRIRVRPPRLPRPRPRPMKSPRP — higher, 3.02
- RRIRLRPPRLPRPRPRPPYMPRP — within 0.2 log units, -0.205
- RRIRSRPPRLPRPRPRPKMAPRP — within 0.2 log units, -0.13
- RRIRYRPPRLPRPRPRPESAPRP — within 0.2 log units, -0.146
- RRIRSRPPRLPRPRPRPWQQPRP — higher, 0.179
- RRIRARPPRLPRPRPRPVHFPRP — higher, 0.396
- RRIRSRPPRLPRPRPRPTYAPRP — within 0.2 log units, 0.0244
- RRIRQRPPRLPRPRPRPCWAPRP — within 0.2 log units, -0.139
- RRIRERPPRLPRPRPRPRTEPRP — within 0.2 log units, -0.0166
- RRIRPRPPRLPRPRPRPQVNPRP — within 0.2 log units, -0.279
- RRIRLRPPRLPRPRPRPLADPRP — within 0.2 log units, -0.0654
- RRIRKRPPRLPRPRPRPELWPRP — higher, 1.42
- RRIRIRPPRLPRPRPRPGRPPRP — higher, 0.398
- RRIRVRPPRLPRPRPRPVHFPRP — higher, 0.13
- RRIRDRPPRLPRPRPRPNPAPRP — within 0.2 log units, 0.0831
- RRIRERPPRLPRPRPRPHNKPRP — lower, -0.787
- RRIRSRPPRLPRPRPRPSNEPRP — lower, -0.476
- RRIRCRPPRLPRPRPRPADSPRP — within 0.2 log units, -0.0251
- RRIRKRPPRLPRPRPRPMQDPRP — within 0.2 log units, -0.0916
- RRIRWRPPRLPRPRPRPLDHPRP — higher, 0.165
- RRIRIRPPRLPRPRPRPDFPPRP — within 0.2 log units, 0.058
- RRIRSRPPRLPRPRPRPGWVPRP — higher, 0.549
- RRIRRRPPRLPRPRPRPRNDPRP — higher, 0.195
- RRIRNRPPRLPRPRPRPHSFPRP — within 0.2 log units, -0.258
- RRIRWRPPRLPRPRPRPMSNPRP — within 0.2 log units, 0.0465
- RRIRARPPRLPRPRPRPIWHPRP — higher, 0.331
- RRIRVRPPRLPRPRPRPDGHPRP — within 0.2 log units, -0.00145
- RRIRNRPPRLPRPRPRPGNPPRP — within 0.2 log units, 0.0273
- RRIRERPPRLPRPRPRPAHPPRP — within 0.2 log units, -0.0581
- RRIRCRPPRLPRPRPRPWNWPRP — within 0.2 log units, -0.0303
- RRIRVRPPRLPRPRPRPLAIPRP — within 0.2 log units, 0.0184
- RRIRDRPPRLPRPRPRPWFAPRP — within 0.2 log units, -0.0921
- RRIRSRPPRLPRPRPRPRDVPRP — within 0.2 log units, -0.0918
